One molecule from patent US20260258158A1 (Janssen / Centocor, published 2026) can be followed below.

The target of this assay is T1, Biotinylated Human CD3 epsilon&CD3 delta Heterodimer Protein, His, Avitag&Tag Free (AcroBiosystems) (human, UniProt P07766 23-126; P04234 22-105).
T1 construct: also called cluster of differentiation 3 (CD3); soluble CD3 antigen
Description: BLI, biotinylated CD3 epsilon/delta on the tip, antibody as analyte (FIG. 24C). (In general: Biolayer interferometry detects binding as a change in optical thickness at a sensor tip.)
Description: In the BLI assay for CD3, due to nonspecific binding from the soluble CD3 antigen (Biotinylated Human CD3 epsilon&CD3 delta Heterodimer Protein, His, Avitag™&Tag Free from AcroBiosystems), the assay was reversed, i.e., immobilizing the antigen to the tip and using the bispecific antibodies as the analyte.

T1 sequence (P07766 23-126, stated change not applied, chain 1 of 2): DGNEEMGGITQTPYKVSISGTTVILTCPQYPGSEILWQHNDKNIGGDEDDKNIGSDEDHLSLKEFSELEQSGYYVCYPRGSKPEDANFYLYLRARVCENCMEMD
T1 sequence (P04234 22-105, stated change not applied, chain 2 of 2): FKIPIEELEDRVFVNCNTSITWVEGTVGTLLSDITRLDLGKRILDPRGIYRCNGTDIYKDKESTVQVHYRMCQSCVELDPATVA

B1: HLPPB423 (bispecific antibody, human IgG1, kappa)
heavy 1: not shown
light 1: not shown
heavy 2: EVQLVESGGGLVQPGGSLRLSCAASGYSFTGYTMNWVRQAPGKGLEWVALINPYKGVSTYNQKFKDRFTISVDKSKNTAYLQMNSLRAEDTAVYYCARSGYYGDSDWYFDVWGQGTLVTVSSASTKGPSVFPLAPSSKSTSGGTAALGCLVKDYFPEPVTVSWNSGALTSGVHTFPAVLQSSGLYSLSSVVTVPSSSLGTQTYICNVNHKPSNTKVDKKVEPKSCDKTHTCPPCPAPELLGGPSVFLFPPKPKDTLMISRTPEVTCVVVDVSHEDPEVKFNWYVDGVEVHNAKTKPREEQYNSTYRVVSVLTVLHQDWLNGKEYKCKVSNKALPAPIEKTISKAKGQPREPQVYTLPPSREEMTKNQVSLSCAVKGFYPSDIAVEWESNGQPENNYKTTPPVLDSDGSFFLVSKLTVDKSRWQQGNVFSCSVMHEALHNRFTQKSLSLSPGK
light 2: not shown
In the case of B1, the binding result is given as “binds”.
